Assay results from paper PMC9876794 (2022).
Read-outs that look alike come from different tables or passages of the source.

Key:
[1] = molecular target: T1, SARS-CoV-2 spike RBD (WT) (Severe acute respiratory syndrome …, UniProt P0DTC2); assay: BLI
[2] = molecular target: T1, SARS-CoV-2 spike RBD (WT); assay: ELISA; parameters: unit not given here
[3] = molecular target: T1, SARS-CoV-2 spike RBD (WT); assay: BLI; remark: listed apart in the source

Row | Binder | Kd [1] [nM] | binding score [2] | Kd [3] [nM]
1 | C2727 (antibody, V domains shown) VH: EVQLVESGGGLIQPGGSLRLSCAASGFTVSSNYMSWVRQAPGKGLEWVSVIYSGGSTYYADSVKGRFTISRDNSKNTLYLQMNSLRAEDTAVYYCAREGPQKTDWGQGTLVTVSS VL: not shown | 99.6 | 20 | 
2 | C2719 (antibody, V domains shown) VH: EVQLVESGGGLIQPGGSLRLSCAASGFTVSSNYMSWVRQAPGKGLEWVSVIYSGGSTYYADSVKGRFTISRDNSKNTLYLQMNSLRAEDTAVYYCARDLGPYGMDVWGQGTTVTVSS VL: DIQLTQSPSFLSASVGDRVTITCRASQGISSYLAWYQQKPGKAPKLLIYAASTLQSGVPSRFSGSGSGTEFTLTISSLQPEDFATYYCQQLNSYPPEIGQGTRLEIK | 127 | 59.3 | 
3 | C2724 (antibody, V domains shown) VH: not shown VL: EIVLTQSPATLSLSPGERATLSCRASQSVSSYLAWYQQKPGQAPRLLIYDASNRATGIPARFSGSGSGTDFTLTISSLEPEDFAVYYCQQRSNCPLTFGGGTKVEIK | 174 | 604 | 
4 | A49 (antibody, V domains shown) VH: QVQLQQSGSELARPGASVNLSCKASGYTFTSYGVSWVKQRTGQGLEWIGDIYPRSGNSYYNEKFKGKATLTADKSSSTAYMELRSLTSEDSAVYFCAREVYGYEFDYWGQGTTLTVSS VL: DIQMTQTTSSLSASLGDRVTISCRASQDISNYLNWYQQKPDGTVQLLIYYTSRLHSGVPSRFSGSGSGTDYSLTISNLEQEDIATYFCQQGNTLPRTFGGGTKLEIK |  |  | 482
5 | B27 (antibody, V domains shown) VH: EVKLEESGGGLVQPGGSMKLSCAASGFTFSDAWMDWVRQSPEKGLEWVAEIRNKANNHATYYAESVKGRFTISRDDSKSSVYLQMNSLRAEDTGIYYCTNYKYYAMDYWGQGTSVTVSS VL: QIVLTQSPAIMSASPGEKVTMTCSASSSVSYMYWYQQKPGSSPRLLIYDTSNLASGVPVRFSGSGSGTSYSLTISRMEAEDAATYYCQQWSSYPLTFGAGTKLELK |  |  | 120
6 | B21 (antibody, V domains shown) VH: EVKLEESGGGLVQPGGSMKLSCAASGFTFSDAWMDWVRQSPEKGLEWVAEIRNKANNHATYYAESVKGRFTISRDDSKSSVYLQMNSLRAEDTGIYYCTLFLTGHFDYWGQGTTLTVSS VL: DIVMTQSQKFMSTSVGDRVSITCKASQNVRTAVAWYQQKPGQSPKALIYLASNRHTGVPDRFTGSGSGTDFTLTISNVQSEDLADYFCLQHWNYPLTFGSGTKLEIK |  |  | 17.2
7 | A47 (antibody, V domains shown) VH: HVQLQQPGAELVKPGASVKVSCKASGYTFTSFWMHWVKQRPGQGLEWIGGIHPSDSDTNYNQKFKGKATLTVNKSSSTAYMQLSSLTSEDSAVYYCAIGDECANWGQGTLVTVSA VL: DIVLTQSPASLAVSLGQRATISCRASKSVSTSGYSYMHWYQQKPGQPPKLLIYLASNLESGVPARFSGSGSGTDFTLNIHPVEEEDAATYYCHHSRELPFTFGSGTKLEIK |  |  | 142
8 | A24 (antibody, V domains shown) VH: DVQLQESGPGLVKPSQSLSLTCSVTGYSITSGYYWNWIRQFPGNKMEWMGYITYDGRNTYNPSPKNRLSITRDTSKNQFFLKLNSVTTEDTATYYCARCHYYGSSYAMDYWGQGTSVTVSS VL: DIVMTQSHKFMSTSVGDRVSITCKASQDVSTAVAWYRQKPGQSPKLLIYWASTRHTGVPDRFTGSGSGTDYTLTISSVQPEDLALYYCQQHYTTPLTFGAGTKLELK |  |  | 205
9 | B33 (antibody, V domains shown) VH: EVQLQQSGPELVKPGTSVKISCKASGYSFTGYYMNWVKQSPEKSLEWIGEINPSTGGTTYNQKFKAKATLTVDKSSSTAYMQLKSLTSEDSAVYYCARADYWGQGTTLTVSS VL: DIVLTQSPASLAVSLGQRATISCRASESVEYYVTSLMQWYQQKPGQPPKLLIYAASNVESGVPARFSGSGSGTDFSLNIHPVEEDDIAMYFCQQSREVPYTFGGGTKLEIK |  |  | 72.7
10 | B08 (antibody, V domains shown) VH: EVQLQQSGPELVKPGASVKISCKASGYSFTGYYMNWVKQSPEKSLEWIGEINPSTGGTTYNQKFKAKATLTVDKSSSTAYMQLKSLTSEDSAVYYCARGGADVWGTGTTVTVSS VL: DIVLTQSPASLAVSLGQRATISCRASESVEYYGTSLMQWYQQKPGQPPKLLIYAASNVESGVPARFSGSGSGTDFSLNIHPVEEDDIAMYFCQQSRKVPWTFGGGTKLEIK |  |  | 87.2
11 | B03 (antibody, V domains shown) VH: EVQLQQSGPELVKPGASVKISCKASGYSFTGYYMNWVKQSPEKSLEWIGEINPSTGGATYNQKFKAKATLTVDKSSSTASMQLKSLTSEDSAVYYCARAAGDYWGQGTTLTVSS VL: DIVLTQSPASLAVSLGQRATISCRASESVEYYGTSLMQWYQQKPGQPPKLLIYAASNVESGVPARFSGSGSGTDFSLNIHPVEEDDIAMYFCQQSRKVPWTFGGGTKLEIK |  |  | 52.6
12 | B47 (antibody, V domains shown) VH: EVQLQQSGPELVKPGASVKISCKASDYSFTGYYMNWVKQSPEKSLEWIGEINPSTGGTTYNQKFKAKATLTVDKSSSTAYMQLKSLTSEDSAVYYCARGSGAYWGQGTLVTVSA VL: DIVLTQSPASLAVSLGQRATISCRASESVEYYGTSLMQWYQQKPGQPPKLLIYAASNVESGVPARFSGSGSGTDFSLNIHPVEEDDIAMYFCQQSRKVPYTFGGGTKLEIK |  |  | 26.5
13 | B22 (antibody, V domains shown) VH: EVKLEESGGGLVQPGGSMKLSCAASGFTFSDAWMDWVRQSPEKGLEWVAEIRNKANNHAIYYAESVKGRFTISRDDSKSSVYLQMNSLRAEDTGIYYCILFLTGHFDYWGQGTTLTVSS VL: DIVMTQSQKFMSTSVGDRVSITCKASQNVRTAVVWYQEKPGQSPKTLIYLASNRHTGVPDRFTGSGSGTDFTLTISNVQSEDLADYFCLQHWNYPLTFGSGTKLEIK |  |  | 269
14 | B02 (antibody, V domains shown) VH: QVQLQQPGAELVKPGASVKVSCKASGYTFTSYWMHWVKQRPGQGLEWIGRIHPSDSDTNYNQKFKGKATLTVDKSSSTAYMQLSSLTSEDSAVYYCAMDWDVDYWGQGTTLTVSS VL: QIVLTQSPALMSASPGEKVTMTCSASSSVSYMYWYQQKPRSSPKPWIYLTSNLASGVPARFSGSGSGTSYSLTISSMEAEDAATYYCQQWSSNPFTFGSGTKLEIK |  |  | 580
15 | D046 (antibody, V domains shown) VH: EVQLVESGGGLVQPGGSLRLSCAASGFTFSSYWMHWVRQAPGKGLVWVSRINSDGSSTSYADSVKGRFTISRDNAKNTLYLQMNSLRAEDTAVYYCARGVPHDYGDYESVILAGYYYYYYGMDVWGQGTTVTVSS VL: not shown | 42.4 | 6.02 | 
16 | C2699 (antibody, V domains shown) VH: QLQLQESGPGLVKPSETLSLTCTVSRGSISSSSYYWGWIRQPPGKGLEWIGSIYYSGNTYYNPSLKSRVTISVDTSNNQFFLKLSSVTAADTAVYYCARRPNSGWGYWYFDLWGRGTLVTVSS VL: not shown | 74 | 334 | 
17 | B05 (antibody, V domains shown) VH: QVQLKQSGAELVRPGASVKLSCKASGYTFTDYYINWVKQRPGQGLEWIARIYPGSGNPYYNEKFKGKATLTAEKSSSTAYMQLSSLTSEDSAVYFCARRGTLLYAFAYWGQGTLVTVSA VL: not shown |  |  | 68.5
18 | D064 (antibody, V domains shown) VH: EVQLVQSGAEVKKPGESLKISCKGSGYSFTSYWIGWVRQMPGKGLEWMGIIYPGDSDTRYSPSFQGQVTISADKSISTAYLQWSSLKASDTAMYYCASHAGGYDFDYYYMDVWGKGTTVTVSS VL: not shown | 344 | 1230 | 
19 | B07 (antibody, V domains shown) VH: QVQLQQSGPELVKPGASVKISCKASGYVFSSSWMNWVKQRPGKGLEWIGRIYPGDGETNYNGKFKGKATLTADKSSSTAYMQLSSLTSEDSAVYFCARFDYGYDGHVWGTGTTVTVSS VL: DIVMTQSQKFMSTSVGDRVSVTCKASQNVGTNVAWYQQKPGQSPKALIYSASYLYSGVPDRFTGSGSGTDFTLTISNVQSEDLAEYFCQQYNSYPLLTFGAGTKLELK |  |  | 17700
20 | B32 (antibody, V domains shown) VH: QVQLQQSGPELVKPGASVKISCKASGYAFSSSWMNWVKQRPGKGLEWIGRIYPGDGDTNYNGKFKGKATLTADKSSSTAYMQLSSLTSEDSAVYFCARELDPPWGQGTTLTVSS VL: DILMTQSPSSMSVSLGDTVSITCHASQGISSNIGWLQQKPGKSFKGLIYHGTNLEDGVPSRFCGSGSGADYSLTISSLESEDFADYYCVQYAQFPFTFGSGTKLEIK |  |  | 95.8
21 | B26 (antibody, V domains shown) VH: QVQLQQPGAELVKPGASVKMSCKASGYTFTSYWITWVKQRPGQGLEWIGDIYPGSGSTNYNEKFKSKATLTVDTSSSTAYMQLSSLTSEDSAVYYCARDWDYGSSYWYFDVWGTGTTVTVSS VL: DIKMTQSPSSMYASLGERVTITCKASQDIKSYLSWYQQKPWKSPKTLIYYATSLADGVPSRFSGSGSGQDYSLTISSLASDDTATYYCLQHGESPYTFGGGTKLEIK |  |  | 104
22 | D159 (antibody, V domains shown) VH: QVQLVESGGGVVQPGGSLRLSCAASGFTFSTYGMHWVRQAPGKGLEWVAFIQYDGSNKYYADSVKGRFTISRDNSKNTLCLQMNTLRAEDTAVYYCAKDLYYYGSGSYFDYWGQGTLVTVSS VL: not shown | 16.9 | 59.9 | 
23 | A09 (antibody, V domains shown) VH: QVQLQQPGAELVKPGASVKVSCKASGYTFTSYWMHWVKQRPGQGLEWIGRIHPSDSDTNYNQKFKGKATLTVDKSSSTAYMQLSSLTSEDSAVYSCARGMDYWGQGTSVTVSS VL: DVVLTQTPLSLPVNIGDQASISCKSTKSLLNSVGFTYLDWYLQKPGQSPQLLIYLVSNRFSGVPDRFSGSGSGTDFTLKISRVEAEDLGVYYCFQSNYLPYTFGGGTKLEIK |  |  | 30.2
24 | D147 (antibody, V domains shown) VH: QVQLVESGGGVVQPGRSLRLSCAASGFTFSSYGMYWVRQAPGKGLEWVAVISYDGSNKYYADSVKGRFTISRDNSKNTLYLQMNSLRAEDTAVYYCAKGGGEYCSGGNCYSSYFDYWGQGTLVTVSS VL: not shown | 94.2 | 7.89 | 
